These results are taken from patent US20050272633A1.

In the test the target is endogenous NIK of mouse embryonic fibroblast cells (mouse) (UniProt Q9WUL6). Briefly: cell-based or functional assay.
endogenous NIK of mouse embryonic fibroblast cells (mouse), sequence (Q9WUL6 whole entry): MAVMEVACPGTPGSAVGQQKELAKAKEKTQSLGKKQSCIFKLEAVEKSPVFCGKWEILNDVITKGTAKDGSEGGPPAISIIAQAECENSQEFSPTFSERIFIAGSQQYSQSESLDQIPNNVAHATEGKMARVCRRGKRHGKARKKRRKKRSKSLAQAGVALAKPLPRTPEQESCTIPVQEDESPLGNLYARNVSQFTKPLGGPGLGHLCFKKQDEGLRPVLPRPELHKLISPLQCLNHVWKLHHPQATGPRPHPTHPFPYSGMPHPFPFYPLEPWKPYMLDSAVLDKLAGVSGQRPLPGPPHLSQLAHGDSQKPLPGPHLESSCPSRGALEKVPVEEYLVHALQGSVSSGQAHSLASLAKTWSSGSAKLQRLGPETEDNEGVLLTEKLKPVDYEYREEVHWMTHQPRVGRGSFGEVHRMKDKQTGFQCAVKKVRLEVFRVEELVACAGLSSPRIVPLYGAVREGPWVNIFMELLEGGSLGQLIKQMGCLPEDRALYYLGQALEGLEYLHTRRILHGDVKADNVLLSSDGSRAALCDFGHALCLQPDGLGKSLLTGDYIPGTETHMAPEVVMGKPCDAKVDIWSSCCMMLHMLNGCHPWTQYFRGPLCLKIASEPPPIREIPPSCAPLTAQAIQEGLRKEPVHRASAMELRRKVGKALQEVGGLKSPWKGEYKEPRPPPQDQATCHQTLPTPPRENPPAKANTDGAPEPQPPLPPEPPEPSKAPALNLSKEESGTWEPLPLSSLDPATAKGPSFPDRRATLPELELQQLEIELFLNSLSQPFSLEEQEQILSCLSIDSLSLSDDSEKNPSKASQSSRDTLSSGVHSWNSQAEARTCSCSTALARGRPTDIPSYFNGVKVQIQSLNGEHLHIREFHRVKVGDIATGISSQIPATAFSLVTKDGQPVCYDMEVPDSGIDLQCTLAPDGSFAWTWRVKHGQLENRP

With “GST fusion protein with the intracellular domain of cγc (pGSTICcγc) (from UniProt P31785 284-369)”, the NF-κB activation by LTβ, luciferase reporter assay, mouse embryonic fibroblast cell line turned out to be 2.5 fold.
The substance “GST-41MDD fusion protein (from UniProt P31785 329-369)” yielded a decrease in NF-κB activation by LTβ, luciferase reporter assay, mouse embryonic fibroblast cell line of 50%.
